Test results published in US20170321220A1 (INDIANA UNIVERSITY RESEARCH AND TECHNOLOGY, published 2017).
Where two headings read alike, the source gives them in different places.

B1: DecWT (other)
chain: MGSSHHHHHHSLVPRGSQDPMANPNFTPSWPLYKDADGVYVSALPIKAIKYANDGSANAEFDGPYADQYMSAQTVAVFKPEVGGYLFRSQYGELLYMSKTAFEANYTSASGSVANAETADKLSTARTITLTGAVTGSASFDGSANVTIETTSGS
notes: also called Dec with an N-terminal his-tag
B2: DecΔ11 (Dec lacking the first 11 N-terminal residues) (other)
chain: MGSSHHHHHHSQDPLYKDADGVYVSALPIKAIKYANDGSANAEFDGPYADQYMSAQTVAVFKPEVGGYLFRSQYGELLYMSKTAFEANYTSASGSVANAETADKLSTARTITLTGAVTGSASFDGSANVTIETTSGS
B3: DecmCD40L (Dec fused at its C-terminus to the soluble region of murine CD40L) (ligand)
chain: MGSSHHHHHHSQDPMANPNFTPSWPLYKDADGVYVSALPIKAIKYANDGSANAEFDGPYADQYMSAQTVAVFKPEVGGYLFRSQYGELLYMSKTAFEANYTSASGSVANAETADKLSTARTITLTGAVTGSASFDGSANVTIETTSGSELQRGDEDPQIAAHVVSEANSNAASVLQWAKKGYYTMKSNLVMLENGKQLTVKREGLYYVYTQVTFCSNREPSSQRPFIVGLWLKPSSGSERILLKAANTHSSSQLCEQQSVHLGGVFELQAGASVFVNVTEASQVIHRVGFSSFGLLKL
B4: DecSelf (Dec fused at its C-terminus to the 21 amino acid CD47 mimic Self-peptide) (other)
chain: MGSSHHHHHHSQDPMANPNFTPSWPLYKDADGVYVSALPIKAIKYANDGSANAEFDGPYADQYMSAQTVAVFKPEVGGYLFRSQYGELLYMSKTAFEANYTSASGSVANAETADKLSTARTITLTGAVTGSASFDGSANVTIETTSGSELGNYTCEVTELTREGETIIELK
B5: DecΔ20 (Dec lacking the first 20 N-terminal residues) (other)
chain: MGSSHHHHHHSQDPVSALPIKAIKYANDGSANAEFDGPYADQYMSAQTVAVFKPEVGGYLFRSQYGELLYMSKTAFEANYTSASGSVANAETADKLSTARTITLTGAVTGSASFDGSANVTIETTSGS

Experiments:
[1] = molecular target: P22 procapsid (PC) after removal of the Dec-binding sub-population (bacteriophage P22 (filing: P22 VLP from Salmonella typhimurium)) (UniProt P26747); assay: SEC retention shift after incubation with DecWT; PC control row 0±0.001
[2] = molecular target: P22 procapsid (PC) after removal of the Dec-binding sub-population (bacteriophage P22 (filing: P22 VLP from Salmonella typhimurium)) (UniProt P26747); assay: SEC-MALS, particle molecular weight after incubation with DecWT; PC control row 22.8±0.7
[3] = molecular target: P22 procapsid (PC) after removal of the Dec-binding sub-population (bacteriophage P22 (filing: P22 VLP from Salmonella typhimurium)) (UniProt P26747); assay: SEC-QELS, particle radius of hydration after incubation with DecWT; PC control row 26.4±0.5
[4] = molecular target: P22 procapsid (PC) after removal of the Dec-binding sub-population (bacteriophage P22 (filing: P22 VLP from Salmonella typhimurium)) (UniProt P26747); assay: SEC-MALS, number of Dec monomers calculated from the difference between bound and control particle molecular weight; PC control row 0±43
[5] = molecular target: T1, EX P22 VLP (expanded form of the bacteriophage P22 virus-like particle) (bacteriophage P22 (filing: P22 VLP from …, UniProt P26747 2-430))
[6] = molecular target: T1, EX P22 VLP (expanded form of the …); assay: SPR, from the fitted parameters
[7] = molecular target: T1, EX P22 VLP (expanded form of the …); assay: SPR, EX P22 immobilised, two-site fit, low-affinity site
[8] = molecular target: T1, EX P22 VLP (expanded form of the …); assay: SPR, EX P22 immobilised, two-site fit, high-affinity site
[9] = molecular target: T1, EX P22 VLP (expanded form of the …); assay: SPR, extended 4 h dissociation, two independent sites, weak site
[10] = molecular target: T1, EX P22 VLP (expanded form of the …); assay: SPR, extended 4 h dissociation, two independent sites, tight site
[11] = molecular target: T1, EX P22 VLP (expanded form of the …); assay: SPR, EX P22 immobilised, single-site fit of the low concentrations
[12] = molecular target: T1, EX P22 VLP (expanded form of the …); assay: SEC retention shift of P22 upon Dec binding; EX control row 0±0.008
[13] = molecular target: T1, EX P22 VLP (expanded form of the …); assay: SPR, two-site fit with the tight-site kd fixed at the value of the 4 h dissociation
[14] = molecular target: T1, EX P22 VLP (expanded form of the …); assay: SEC-MALS, particle molecular weight with Dec bound; EX control row 20.5±0.2
[15] = molecular target: T1, EX P22 VLP (expanded form of the …); assay: SEC-QELS, particle radius of hydration with Dec bound; EX control row 28.4±0.7
[16] = molecular target: T1, EX P22 VLP (expanded form of the …); assay: SPR, EX P22 immobilised, two-site global fit; site 2, column 'Ka2 (M-1 s-1)'
[17] = molecular target: T1, EX P22 VLP (expanded form of the …); assay: SPR, EX P22 immobilised, two-site global fit; site 1, column 'Kd1 (s-1 x 10-4)'
[18] = molecular target: T1, EX P22 VLP (expanded form of the …); assay: SPR, EX P22 immobilised, two-site fit, tighter site
[19] = molecular target: T1, EX P22 VLP (expanded form of the …); assay: SPR, EX P22 immobilised, two-site global fit; site 2, column 'KD2 (nM)'
[20] = molecular target: T1, EX P22 VLP (expanded form of the …); remark: listed apart in the source
[21] = molecular target: T1, EX P22 VLP (expanded form of the …); assay: SPR, single-site fit

T1 sequence (P26747 2-430 limits assumed): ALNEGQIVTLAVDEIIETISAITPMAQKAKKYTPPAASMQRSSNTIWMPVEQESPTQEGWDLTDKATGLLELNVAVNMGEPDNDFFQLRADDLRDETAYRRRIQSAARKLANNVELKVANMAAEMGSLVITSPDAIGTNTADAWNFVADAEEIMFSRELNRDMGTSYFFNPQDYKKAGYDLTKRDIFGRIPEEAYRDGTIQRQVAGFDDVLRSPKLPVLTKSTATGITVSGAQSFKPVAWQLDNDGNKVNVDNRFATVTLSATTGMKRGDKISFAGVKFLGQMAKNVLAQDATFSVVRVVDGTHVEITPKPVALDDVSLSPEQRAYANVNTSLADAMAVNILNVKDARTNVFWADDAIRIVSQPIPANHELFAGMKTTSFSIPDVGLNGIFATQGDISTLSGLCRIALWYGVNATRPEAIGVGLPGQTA
Chain of P22 procapsid (PC) after removal of the Dec-binding sub-population (bacteriophage P22 (filing: P22 VLP from Salmonella typhimurium)) (P26747 2-430, chain 1 of 2): as the sequence (P26747 2-430 limits assumed) above
Chain of P22 procapsid (PC) after removal of the Dec-binding sub-population (bacteriophage P22 (filing: P22 VLP from Salmonella typhimurium)) (P26748 whole entry, chain 2 of 2, further chain): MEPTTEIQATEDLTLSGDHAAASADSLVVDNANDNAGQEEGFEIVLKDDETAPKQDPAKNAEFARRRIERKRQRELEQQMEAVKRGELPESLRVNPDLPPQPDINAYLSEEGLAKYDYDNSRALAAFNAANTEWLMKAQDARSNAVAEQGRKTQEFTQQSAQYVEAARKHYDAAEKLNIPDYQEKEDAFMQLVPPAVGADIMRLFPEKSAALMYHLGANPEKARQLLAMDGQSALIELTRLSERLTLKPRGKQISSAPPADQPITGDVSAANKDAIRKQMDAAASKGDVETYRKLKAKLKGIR

Molecule | Kd [5] [nM] | koff [5] [s⁻¹] | Kd [7] [nM] | retention shift [12] [min] | MW (MDa) [14] [MDa] | Rh (nm) [15] [nm] | kon [16] [M⁻¹ s⁻¹] | Kd [18] [nM] | koff [18] [s⁻¹] | kon [18] [M⁻¹ s⁻¹] | other results
DecWT |  |  |  |  |  |  |  |  |  |  | retention shift [1]: 0.03 min; MW (MDa) [2]: 23.2 MDa; Rh (nm) [3]: 26.6 nm; Dec monomers [4]: 24 monomers
B1 | 446 | 0.00182 | 1500 | 0.619 | 23 | 29.6 |  |  |  |  | half-life of binding at the tight-site [6]: ≥ 60 h; koff [7]: 0.00298 s⁻¹; kon [7]: 1980 M⁻¹ s⁻¹; Kd [8]: 9.2 nM; koff [8]: 0.000106 s⁻¹; kon [8]: 11500 M⁻¹ s⁻¹; koff [9]: 0.00095 s⁻¹; koff [10]: 3.2e-06 s⁻¹; Kd [11]: 24 nM; koff [11]: 0.00033 s⁻¹; kon [11]: 13800 M⁻¹ s⁻¹; Kd [13]: 0.255 nM
B2 |  | 0.0044 |  | 0.595 | 23.6 | 30.1 | 38300 |  |  |  | kon [5]: 9200 M⁻¹ s⁻¹; koff [17]: 4.4e-05 s⁻¹
B3 |  | 0.0068 | 1420 |  |  |  | 4820 | 30.8 | 0.0002 | 6440 | 
B4 |  | 0.00323 | 146 | 0.5 | 22.6 | 29.6 | 2190 | 18.3 | 0.0002 | 11200 | Kd [19]: 146 nM
B5 | 3450 | 0.00024 |  |  |  |  |  |  |  |  | Kd [20]: 3500 nM; fold reduction in KD from the high-affinity site of DecWT [21]: > 300 fold
